For this assay, the target named is MAb<EGFR> (human). Nature of the assay: SPR.

pKd: −log10 of the molar value.

In general, pKd refers to −log10 of the Kd, conventionally taken in molar units. Take “soluble construct of the FcγRIIIa ectodomain (from UniProt P08637 17-208) (receptor)”: the pKd is 6.92.

These data come from paper PMC3449402.
